Experimental data: patent publication US20030120051A1 (SUGEN, published 2003)
Values belong to the binder of their own block, whether it stands above or below them.

Assays:
[1] = molecular target: human c-Src (human, UniProt P12931 2-536); test: immunoprecipitation of transfected COS7 lysates with antibodies against c-Src, immunoblotting with anti-fusion antibodies
[2] = molecular target: T1, rat CASPR/p190 (rat, UniProt P97846 21-1381); test: co-precipitation of p190 with contactin by the RPTPβ Fc fusion from GH3 membrane extracts
T1 construct: Endogenous in GH3 cells and rat brain, or expressed from pCM190R in COS7 cells; read from membrane lysates; no cleavage site stated; also called Contactin ASsociated PRotein; 190 kDa protein
T1 sequence: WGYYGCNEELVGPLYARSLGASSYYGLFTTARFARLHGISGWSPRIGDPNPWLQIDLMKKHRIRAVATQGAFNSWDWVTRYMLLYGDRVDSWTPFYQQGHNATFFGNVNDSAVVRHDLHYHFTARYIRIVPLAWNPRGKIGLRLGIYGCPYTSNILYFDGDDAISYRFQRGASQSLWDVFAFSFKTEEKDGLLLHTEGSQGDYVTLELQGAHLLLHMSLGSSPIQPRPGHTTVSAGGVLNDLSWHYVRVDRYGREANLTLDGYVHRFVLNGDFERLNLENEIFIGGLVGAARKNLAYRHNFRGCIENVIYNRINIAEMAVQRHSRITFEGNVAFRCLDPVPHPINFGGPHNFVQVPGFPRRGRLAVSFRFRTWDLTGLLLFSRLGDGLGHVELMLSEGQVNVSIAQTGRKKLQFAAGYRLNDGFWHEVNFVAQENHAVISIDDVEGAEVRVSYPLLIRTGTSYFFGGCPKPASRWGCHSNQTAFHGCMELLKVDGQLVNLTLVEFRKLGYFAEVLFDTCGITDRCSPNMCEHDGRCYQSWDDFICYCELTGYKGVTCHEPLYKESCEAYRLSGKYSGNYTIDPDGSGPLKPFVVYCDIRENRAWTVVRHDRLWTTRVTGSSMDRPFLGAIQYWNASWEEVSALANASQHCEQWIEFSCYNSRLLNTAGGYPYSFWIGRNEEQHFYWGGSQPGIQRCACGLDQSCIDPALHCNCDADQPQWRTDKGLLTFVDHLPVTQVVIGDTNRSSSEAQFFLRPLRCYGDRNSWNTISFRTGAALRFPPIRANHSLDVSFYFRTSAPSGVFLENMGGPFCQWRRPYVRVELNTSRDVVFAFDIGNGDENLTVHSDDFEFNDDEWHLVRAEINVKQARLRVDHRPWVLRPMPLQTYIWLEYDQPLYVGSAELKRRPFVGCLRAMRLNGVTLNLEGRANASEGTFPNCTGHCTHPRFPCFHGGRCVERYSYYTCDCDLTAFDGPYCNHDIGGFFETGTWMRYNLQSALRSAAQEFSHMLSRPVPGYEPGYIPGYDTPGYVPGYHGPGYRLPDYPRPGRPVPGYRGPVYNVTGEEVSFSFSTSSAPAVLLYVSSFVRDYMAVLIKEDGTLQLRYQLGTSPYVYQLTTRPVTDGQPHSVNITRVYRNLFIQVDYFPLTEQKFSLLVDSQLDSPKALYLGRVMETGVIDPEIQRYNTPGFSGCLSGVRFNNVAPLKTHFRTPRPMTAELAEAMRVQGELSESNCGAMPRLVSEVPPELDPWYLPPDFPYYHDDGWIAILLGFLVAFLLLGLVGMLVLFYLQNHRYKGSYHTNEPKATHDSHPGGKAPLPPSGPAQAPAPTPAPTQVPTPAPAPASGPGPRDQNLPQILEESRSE

[3] = molecular target: T2, human CASPR/p190 (human, UniProt P78357 20-1384); test: immunoprecipitation of IMR-32 lysates with CASPR/p190 antibodies, immunoblotting with contactin antibodies
T2 construct: Endogenous in IMR-32 neuroblastoma cells
T2 sequence: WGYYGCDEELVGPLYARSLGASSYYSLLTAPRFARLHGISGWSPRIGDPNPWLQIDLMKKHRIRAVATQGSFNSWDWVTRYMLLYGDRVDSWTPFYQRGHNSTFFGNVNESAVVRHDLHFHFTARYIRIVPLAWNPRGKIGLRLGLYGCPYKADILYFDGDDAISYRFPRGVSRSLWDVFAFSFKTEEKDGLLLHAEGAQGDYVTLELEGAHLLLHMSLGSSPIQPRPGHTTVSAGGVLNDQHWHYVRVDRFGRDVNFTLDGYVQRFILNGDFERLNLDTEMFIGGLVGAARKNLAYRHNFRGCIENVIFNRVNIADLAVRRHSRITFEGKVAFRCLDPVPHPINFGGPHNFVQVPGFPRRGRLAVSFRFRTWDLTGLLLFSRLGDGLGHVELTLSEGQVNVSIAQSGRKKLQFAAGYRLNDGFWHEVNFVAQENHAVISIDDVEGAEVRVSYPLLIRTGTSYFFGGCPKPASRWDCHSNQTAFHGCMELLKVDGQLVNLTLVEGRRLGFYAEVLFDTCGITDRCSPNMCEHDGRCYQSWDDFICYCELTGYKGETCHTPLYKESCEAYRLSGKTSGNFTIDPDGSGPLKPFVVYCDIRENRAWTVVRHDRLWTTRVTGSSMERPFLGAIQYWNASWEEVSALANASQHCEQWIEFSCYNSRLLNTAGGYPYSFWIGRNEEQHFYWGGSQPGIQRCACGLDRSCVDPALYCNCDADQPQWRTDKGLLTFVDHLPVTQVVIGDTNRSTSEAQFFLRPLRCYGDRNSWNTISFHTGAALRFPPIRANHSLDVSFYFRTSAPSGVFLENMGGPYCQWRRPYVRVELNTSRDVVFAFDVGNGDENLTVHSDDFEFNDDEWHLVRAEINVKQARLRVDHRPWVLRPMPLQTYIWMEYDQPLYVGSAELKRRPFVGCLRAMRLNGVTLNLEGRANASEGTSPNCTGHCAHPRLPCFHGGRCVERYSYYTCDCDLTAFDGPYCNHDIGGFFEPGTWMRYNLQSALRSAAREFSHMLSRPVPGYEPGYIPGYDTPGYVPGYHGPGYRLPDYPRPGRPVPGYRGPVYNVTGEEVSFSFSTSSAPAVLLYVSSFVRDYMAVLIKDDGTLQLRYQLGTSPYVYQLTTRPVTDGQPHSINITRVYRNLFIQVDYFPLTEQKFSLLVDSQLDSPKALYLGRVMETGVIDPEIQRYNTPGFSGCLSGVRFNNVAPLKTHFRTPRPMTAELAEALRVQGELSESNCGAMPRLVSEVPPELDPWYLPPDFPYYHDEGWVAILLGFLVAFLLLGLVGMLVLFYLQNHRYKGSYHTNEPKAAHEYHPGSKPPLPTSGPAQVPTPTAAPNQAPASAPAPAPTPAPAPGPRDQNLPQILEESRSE

binding result [1]: binds
B1: HA-tagged rat CASPR/p190 (pCM190HA) (receptor, not shown: small tags and cut ends)
chain: WGYYGCNEELVGPLYARSLGASSYYGLFTTARFARLHGISGWSPRIGDPNPWLQIDLMKKHRIRAVATQGAFNSWDWVTRYMLLYGDRVDSWTPFYQQGHNATFFGNVNDSAVVRHDLHYHFTARYIRIVPLAWNPRGKIGLRLGIYGCPYTSNILYFDGDDAISYRFQRGASQSLWDVFAFSFKTEEKDGLLLHTEGSQGDYVTLELQGAHLLLHMSLGSSPIQPRPGHTTVSAGGVLNDLSWHYVRVDRYGREANLTLDGYVHRFVLNGDFERLNLENEIFIGGLVGAARKNLAYRHNFRGCIENVIYNRINIAEMAVQRHSRITFEGNVAFRCLDPVPHPINFGGPHNFVQVPGFPRRGRLAVSFRFRTWDLTGLLLFSRLGDGLGHVELMLSEGQVNVSIAQTGRKKLQFAAGYRLNDGFWHEVNFVAQENHAVISIDDVEGAEVRVSYPLLIRTGTSYFFGGCPKPASRWGCHSNQTAFHGCMELLKVDGQLVNLTLVEFRKLGYFAEVLFDTCGITDRCSPNMCEHDGRCYQSWDDFICYCELTGYKGVTCHEPLYKESCEAYRLSGKYSGNYTIDPDGSGPLKPFVVYCDIRENRAWTVVRHDRLWTTRVTGSSMDRPFLGAIQYWNASWEEVSALANASQHCEQWIEFSCYNSRLLNTAGGYPYSFWIGRNEEQHFYWGGSQPGIQRCACGLDQSCIDPALHCNCDADQPQWRTDKGLLTFVDHLPVTQVVIGDTNRSSSEAQFFLRPLRCYGDRNSWNTISFRTGAALRFPPIRANHSLDVSFYFRTSAPSGVFLENMGGPFCQWRRPYVRVELNTSRDVVFAFDIGNGDENLTVHSDDFEFNDDEWHLVRAEINVKQARLRVDHRPWVLRPMPLQTYIWLEYDQPLYVGSAELKRRPFVGCLRAMRLNGVTLNLEGRANASEGTFPNCTGHCTHPRFPCFHGGRCVERYSYYTCDCDLTAFDGPYCNHDIGGFFETGTWMRYNLQSALRSAAQEFSHMLSRPVPGYEPGYIPGYDTPGYVPGYHGPGYRLPDYPRPGRPVPGYRGPVYNVTGEEVSFSFSTSSAPAVLLYVSSFVRDYMAVLIKEDGTLQLRYQLGTSPYVYQLTTRPVTDGQPHSVNITRVYRNLFIQVDYFPLTEQKFSLLVDSQLDSPKALYLGRVMETGVIDPEIQRYNTPGFSGCLSGVRFNNVAPLKTHFRTPRPMTAELAEAMRVQGELSESNCGAMPRLVSEVPPELDPWYLPPDFPYYHDDGWIAILLGFLVAFLLLGLVGMLVLFYLQNHRYKGSYHTNEPKATHDSHPGGKAPLPPSGPAQAPAPTPAPTQVPTPAPAPASGPGPRDQNLPQILEESRSE
notes: Expressed in COS7 cells; also called tagged CASPR/p190; CASPR/p190 fusion proteins

binding result [2]: binds
B2: rat contactin (clone F8; p140 of GH3 cells) (receptor, UniProt Q63198 21-1001, looked up)
chain: EFTWHRRYGHGVSEEDKGFGPIFEEQPINTIYPEESLEGKVSLNCRARASPFPVYKWRMNNGDVDLTNDRYSMVGGNLVINNPDKQKDAGIYYCLASNNYGMVRSTEATLSFGYLDPFPPEDRPEVKVKEGKGMVLLCDPPYHFPDDLSYRWLLNEFPVFITMDKRRFVSQTNGNLYIANVESSDRGNYSCFVSSPSITKSVFSKFIPLIPIPERTTKPYPADIVVQFKDIYTMMGQNVTLECFALGNPVPDIRWRKVLEPMPTTAEISTSGAVLKIFNIQLEDEGLYECEAENIRGKDKHQARIYVQAFPEWVEHINDTEVDIGSDLYWPCVATGKPIPTIRWLKNGYAYHKGELRLYDVTFENAGMYQCIAENAYGTIYANAELKILALAPTFEMNPMKKKILAAKGGRVIIECKPKAAPKPKFSWSKGTEWLVNSSRILIWEDGSLEINNITRNDGGIYTCFAENNRGKANSTGTLVITNPTRIILAPINADITVGENATMQCAASFDPSLDLTFVWSFNGYVIDFNKEITNIHYQRNFMLDANGELLIRNAQLKHAGRYTCTAQTIVDNSSASADLVVRGPPGPPGGLRIEDIRATSVALTWSRGSDNHSPISKYTIQTKTILSDDWKDAKTDPPIIEGNMESAKAVDLIPWMEYEFRVVATNTLGTGEPSIPSNRIKTDGAAPNVAPSDVGGGGGTNRELTITWAPLSREYHYGNNFGYIVAFKPFDGEEWKKVTVTNPDTGRYVHKDETMTPSTAFQVKVKAFNNKGDGPYSLIAVINSAQDAPSEAPTEVGVKVLSSSEISVHWKHVLEKIVESYQIRYWAGHDKEAAAHRVQVTSQEYSARLENLLPDTQYFIEVGACNSAGCGPSSDVIETFTRKAPPSQPPRIISSVRSGSRYIITWDHVVALSNESTVTGYKILYRPDGQHDGKLFSTHKHSIEVPIPRDGEYVVEVRAHSDGGDGVVSQVKISGVSTLS
modifications: GPI-anchored
notes: whole, on cells; On transfected COS7 cells, on GH3 cells, in solubilized GH3 membranes or in rat brain membranes, as the entry says; also called rat homologue of contactin; F3/F11

binding result [3]: binds
B3: human contactin of IMR-32 neuroblastoma cells (140 kDa protein) (receptor, UniProt Q12860 21-993, looked up)
chain: EFTWYRRYGHGVSEEDKGFGPIFEEQPINTIYPEESLEGKVSLNCRARASPFPVYKWRMNNGDVDLTSDRYSMVGGNLVINNPDKQKDAGIYYCLASNNYGMVRSTEATLSFGYLDPFPPEERPEVRVKEGKGMVLLCDPPYHFPDDLSYRWLLNEFPVFITMDKRRFVSQTNGNLYIANVEASDKGNYSCFVSSPSITKSVFSKFIPLIPIPERTTKPYPADIVVQFKDVYALMGQNVTLECFALGNPVPDIRWRKVLEPMPSTAEISTSGAVLKIFNIQLEDEGIYECEAENIRGKDKHQARIYVQAFPEWVEHINDTEVDIGSDLYWPCVATGKPIPTIRWLKNGYAYHKGELRLYDVTFENAGMYQCIAENTYGAIYANAELKILALAPTFEMNPMKKKILAAKGGRVIIECKPKAAPKPKFSWSKGTEWLVNSSRILIWEDGSLEINNITRNDGGIYTCFAENNRGKANSTGTLVITDPTRIILAPINADITVGENATMQCAASFDPALDLTFVWSFNGYVIDFNKENIHYQRNFMLDSNGELLIRNAQLKHAGRYTCTAQTIVDNSSASADLVVRGPPGPPGGLRIEDIRATSVALTWSRGSDNHSPISKYTIQTKTILSDDWKDAKTDPPIIEGNMEAARAVDLIPWMEYEFRVVATNTLGRGEPSIPSNRIKTDGAAPNVAPSDVGGGGGRNRELTITWAPLSREYHYGNNFGYIVAFKPFDGEEWKKVTVTNPDTGRYVHKDETMSPSTAFQVKVKAFNNKGDGPYSLVAVINSAQDAPSEAPTEVGVKVLSSSEISVHWEHVLEKIVESYQIRYWAAHDKEEAANRVQVTSQEYSARLENLLPDTQYFIEVGACNSAGCGPPSDMIEAFTKKAPPSQPPRIISSVRSGSRYIITWDHVVALSNESTVTGYKVLYRPDGQHDGKLYSTHKHSIEVPIPRDGEYVVEVRAHSDGGDGVVSQVKIS
modifications: GPI-anchored
notes: whole, on cells; also called p140
